molecular target: acetylcholine receptor (Homo sapiens, UniProt P02708); test: SPR binding affinity (RU) of optimized 5mer/6mer/7mer peptides, Examples 6-7; conditions: SPR, Resonance Units; peptides tested at 10 μM; 6mer-2 Bottom sequence
Method in brief: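 Using surface plasmon resonance, binding to the acetylcholine receptor was measured for each sequence at a single 10 μM concentration. Values are response units.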

acetylcholine receptor, sequence (P02708 21-457): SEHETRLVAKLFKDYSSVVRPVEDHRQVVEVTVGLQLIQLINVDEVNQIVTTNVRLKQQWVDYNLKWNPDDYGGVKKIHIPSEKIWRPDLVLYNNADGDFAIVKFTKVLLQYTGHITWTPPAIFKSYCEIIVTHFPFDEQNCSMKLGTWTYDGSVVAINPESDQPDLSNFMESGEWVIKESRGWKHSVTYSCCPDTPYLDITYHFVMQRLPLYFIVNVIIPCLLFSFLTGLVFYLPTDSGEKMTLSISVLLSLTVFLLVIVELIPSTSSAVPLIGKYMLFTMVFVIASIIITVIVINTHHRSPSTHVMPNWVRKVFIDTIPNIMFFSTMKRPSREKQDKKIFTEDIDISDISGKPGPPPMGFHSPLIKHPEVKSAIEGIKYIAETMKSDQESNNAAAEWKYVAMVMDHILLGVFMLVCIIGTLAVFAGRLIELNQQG

6mer-2-798 (RDTPKK) was tested. Which Binding affinity did it give?
Its Binding affinity is 17 Ru.

With 6mer-2-799 (KCSAKK) as the substance, how does the Binding affinity read?
Its Binding affinity is 13 Ru.

Which Binding affinity does the source give for 6mer-2-800 (RTAWKK) here?
The Binding affinity was 11 Ru.

With 6mer-2-801 (RPNIRK) as the substance, how does the Binding affinity read?
Its Binding affinity is 24 Ru.

Which Binding affinity does the source give for 6mer-2-802 (KETKRR) here?
The Binding affinity was 24 Ru.

With 6mer-2-803 (RNKERK) as the substance, how does the Binding affinity read?
The Binding affinity was 18 Ru.

Which Binding affinity does the source give for 6mer-2-804 (RNCGKR) here?
The Binding affinity was 21 Ru.

How did the Binding affinity turn out when 6mer-2-805 (RDTMKK) was run?
Its Binding affinity is 12 Ru.

6mer-2-806 (KHCVRK) was tested. Which Binding affinity did it give?
The Binding affinity was 30 Ru.

6mer-2-807 (KIWNRK) was tested. Which Binding affinity did it give?
Its Binding affinity is 28 Ru.

For 6mer-2-808 (RKKFKK), which Binding affinity is on record?
Its Binding affinity is 21 Ru.

Which Binding affinity does the source give for 6mer-2-809 (REPWRR) here?
The Binding affinity was 18 Ru.

Which Binding affinity does the source give for 6mer-2-810 (KHAKKK) here?
The Binding affinity was 18 Ru.

6mer-2-811 (KAMKRK) was tested. Which Binding affinity did it give?
Its Binding affinity is 16 Ru.

With 6mer-2-812 (KPPEKR) as the substance, how does the Binding affinity read?
Its Binding affinity is 33 Ru.

For 6mer-2-813 (KKMDRR), which Binding affinity is on record?
The Binding affinity was 29 Ru.

6mer-2-814 (RYMERK) was tested. Which Binding affinity did it give?
The Binding affinity was 28 Ru.

Which Binding affinity does the source give for 6mer-2-815 (KICGRK) here?
The Binding affinity was 30 Ru.

For 6mer-2-816 (RKMGKR), which Binding affinity is on record?
Its Binding affinity is 15 Ru.

How did the Binding affinity turn out when 6mer-2-817 (KCNDKK) was run?
Its Binding affinity is 22 Ru.

6mer-2-818 (KTPERK) was tested. Which Binding affinity did it give?
The Binding affinity was 13 Ru.

How did the Binding affinity turn out when 6mer-2-819 (KFSVRR) was run?
Its Binding affinity is 23 Ru.

With 6mer-2-820 (RPNNKK) as the substance, how does the Binding affinity read?
Its Binding affinity is 24 Ru.

How did the Binding affinity turn out when 6mer-2-821 (RPTMKR) was run?
The Binding affinity was 33 Ru.

With 6mer-2-822 (RCTAKK) as the substance, how does the Binding affinity read?
The Binding affinity was 13 Ru.

For 6mer-2-823 (REDWRK), which Binding affinity is on record?
The Binding affinity was 25 Ru.

6mer-2-824 (RITNKR) was tested. Which Binding affinity did it give?
Its Binding affinity is 26 Ru.

Which Binding affinity does the source give for 6mer-2-825 (KIHARK) here?
The Binding affinity was 11 Ru.

With 6mer-2-826 (RNTPRK) as the substance, how does the Binding affinity read?
The Binding affinity was 11 Ru.

With 6mer-2-827 (KYAEKK) as the substance, how does the Binding affinity read?
Its Binding affinity is 13 Ru.

How did the Binding affinity turn out when 6mer-2-828 (RMKKKR) was run?
Its Binding affinity is 32 Ru.

6mer-2-829 (KKKIRR) was tested. Which Binding affinity did it give?
The Binding affinity was 22 Ru.

Which Binding affinity does the source give for 6mer-2-830 (RMKFKR) here?
Its Binding affinity is 21 Ru.

With 6mer-2-831 (RMTWRK) as the substance, how does the Binding affinity read?
Its Binding affinity is 29 Ru.

Which Binding affinity does the source give for 6mer-2-832 (KYHNRR) here?
Its Binding affinity is 32 Ru.

Which Binding affinity does the source give for 6mer-2-833 (RKTWRR) here?
The Binding affinity was 14 Ru.

6mer-2-834 (RFWWKR) was tested. Which Binding affinity did it give?
The Binding affinity was 28 Ru.

With 6mer-2-835 (RHCGKR) as the substance, how does the Binding affinity read?
Its Binding affinity is 20 Ru.

How did the Binding affinity turn out when 6mer-2-836 (KNTMKR) was run?
Its Binding affinity is 26 Ru.

With 6mer-2-837 (REDFRR) as the substance, how does the Binding affinity read?
The Binding affinity was 32 Ru.

For 6mer-2-838 (RCTVRK), which Binding affinity is on record?
The Binding affinity was 13 Ru.

How did the Binding affinity turn out when 6mer-2-839 (KNHNRR) was run?
Its Binding affinity is 32 Ru.

6mer-2-840 (KDWDRK) was tested. Which Binding affinity did it give?
Its Binding affinity is 15 Ru.

How did the Binding affinity turn out when 6mer-2-841 (KPNHRK) was run?
The Binding affinity was 33 Ru.

For 6mer-2-842 (KPKMRR), which Binding affinity is on record?
The Binding affinity was 22 Ru.

How did the Binding affinity turn out when 6mer-2-843 (KAPDRK) was run?
Its Binding affinity is 33 Ru.

For 6mer-2-844 (RDPKKK), which Binding affinity is on record?
Its Binding affinity is 22 Ru.

How did the Binding affinity turn out when 6mer-2-845 (KMKEKR) was run?
Its Binding affinity is 14 Ru.

Which Binding affinity does the source give for 6mer-2-846 (RFSFKR) here?
Its Binding affinity is 30 Ru.

Which Binding affinity does the source give for 6mer-2-847 (RYCHKR) here?
Its Binding affinity is 22 Ru.

Which Binding affinity does the source give for 6mer-2-848 (RMTERK) here?
Its Binding affinity is 29 Ru.

How did the Binding affinity turn out when 6mer-2-849 (RNTAKK) was run?
Its Binding affinity is 13 Ru.

Which Binding affinity does the source give for 6mer-2-850 (KTSMKR) here?
Its Binding affinity is 16 Ru.

How did the Binding affinity turn out when 6mer-2-851 (KFWWRR) was run?
Its Binding affinity is 19 Ru.

6mer-2-852 (RNCERR) was tested. Which Binding affinity did it give?
The Binding affinity was 28 Ru.

6mer-2-853 (KHTGRR) was tested. Which Binding affinity did it give?
The Binding affinity was 29 Ru.

Which Binding affinity does the source give for 6mer-2-854 (RCNWKR) here?
The Binding affinity was 23 Ru.

For 6mer-2-855 (REMIKR), which Binding affinity is on record?
The Binding affinity was 19 Ru.

For 6mer-2-856 (KEPMRR), which Binding affinity is on record?
Its Binding affinity is 14 Ru.

6mer-2-857 (KHTEKK) was tested. Which Binding affinity did it give?
The Binding affinity was 20 Ru.

For 6mer-2-858 (KEEHRR), which Binding affinity is on record?
The Binding affinity was 30 Ru.

For 6mer-2-859 (RMDFRK), which Binding affinity is on record?
The Binding affinity was 21 Ru.

Which Binding affinity does the source give for 6mer-2-860 (KPNFRR) here?
The Binding affinity was 31 Ru.

For 6mer-2-861 (KDTDRK), which Binding affinity is on record?
The Binding affinity was 21 Ru.

Which Binding affinity does the source give for 6mer-2-862 (RHTFKK) here?
Its Binding affinity is 29 Ru.

6mer-2-863 (RKHWRR) was tested. Which Binding affinity did it give?
The Binding affinity was 17 Ru.

Reference: US20250011363A1, “OPTIMIZED SHORTENED PEPTIDE THAT BINDS TO ACETYLCHOLINE RECEPTOR, AND USE THEREOF” (SKINMED CO., LTD., priority 2021, published 2025)
